# Data: publication doi:10.1101/2025.11.14.688508 (bioRxiv, 2025)
# Biological target: the molecule itself
# Assay: SEC
protein,measurement,value
"DY-647P1-labeled recombinant human Bax single cysteine mutant (S4C, C62S, C126S) (natural protein, cysteine labeling with DY-647P1 (single cysteine mutant; degree of labeling ~74 %)) MDGCGEQPRGGGPTSSEQIMKTGALLLQGFIQDRAGRMGGEAPELALDPVPQDASTKKLSESLKRIGDELDSNMELQRMIAAVDTDSPREVFFRVAADMFSDGNFNWGRVVALFYFASKLVLKALSTKVPELIRTIMGWTLDFLRERLLGWIQDQGGWDGLLSYFGTPTWQTVTIFVAGVLTASLTIWKKMG",binding result,binds
